Measurements from patent publication US20120180150A1 (published 2012).

Molecular target: T1, mouse IP3R1 full length with C-terminal GFP (mouse, UniProt P11881 1-2749)
T1 construct: also called IP3R1-GFP; IP3R-GFP protein; not shown: C-terminal GFP of the pEGFP-N1 vector, with any linker from the cloning site
Assay: HA-matrix co-immunoprecipitation from HEK 293 cells, anti-GFP Western blot
Experimental: Into HEK 293 cells, a full length IP3R1-GFP expression plasmid and each of the KRAP full length, the deletion mutants, or the point-mutant expression plasmids were introduced together with lipofectamine LTX (Invitrogen), respectively, and the resulting cells were incubated for 24 hours. They were then homogenized in an extracting buffer (50 mM Tris-HCl, pH7.5, 140 mM NaCl, 0.5% NP40, 0.25M NDSB-201 (Calbiochem), and protease inhibitors (Complete EDTA-free, Roche)), and the homogenized mixture was centrifuged at 15,000 rpm for 30 minutes. The resulting supernatant was then subjected to immunoprecipitation with HA matrix (Roche) to precipitate the IP3R-GFP protein binding to the KRAP protein, and the precipitated IP3R-GFP protein was detected by Western blots using a rabbit polyclonal antibody (Clonetech) as an anti-GFP antibody. In the experiment using HCT 116 cells, the presence or absence of co-precipitation of the endogenous IP3R protein was investigated without transfection of the IP3R-GFP protein using a mouse monoclonal antibody (BD Transduction Laboratory) as an anti-IP3R3 antibody.

T1 sequence (P11881 whole entry S1044R/E1045K): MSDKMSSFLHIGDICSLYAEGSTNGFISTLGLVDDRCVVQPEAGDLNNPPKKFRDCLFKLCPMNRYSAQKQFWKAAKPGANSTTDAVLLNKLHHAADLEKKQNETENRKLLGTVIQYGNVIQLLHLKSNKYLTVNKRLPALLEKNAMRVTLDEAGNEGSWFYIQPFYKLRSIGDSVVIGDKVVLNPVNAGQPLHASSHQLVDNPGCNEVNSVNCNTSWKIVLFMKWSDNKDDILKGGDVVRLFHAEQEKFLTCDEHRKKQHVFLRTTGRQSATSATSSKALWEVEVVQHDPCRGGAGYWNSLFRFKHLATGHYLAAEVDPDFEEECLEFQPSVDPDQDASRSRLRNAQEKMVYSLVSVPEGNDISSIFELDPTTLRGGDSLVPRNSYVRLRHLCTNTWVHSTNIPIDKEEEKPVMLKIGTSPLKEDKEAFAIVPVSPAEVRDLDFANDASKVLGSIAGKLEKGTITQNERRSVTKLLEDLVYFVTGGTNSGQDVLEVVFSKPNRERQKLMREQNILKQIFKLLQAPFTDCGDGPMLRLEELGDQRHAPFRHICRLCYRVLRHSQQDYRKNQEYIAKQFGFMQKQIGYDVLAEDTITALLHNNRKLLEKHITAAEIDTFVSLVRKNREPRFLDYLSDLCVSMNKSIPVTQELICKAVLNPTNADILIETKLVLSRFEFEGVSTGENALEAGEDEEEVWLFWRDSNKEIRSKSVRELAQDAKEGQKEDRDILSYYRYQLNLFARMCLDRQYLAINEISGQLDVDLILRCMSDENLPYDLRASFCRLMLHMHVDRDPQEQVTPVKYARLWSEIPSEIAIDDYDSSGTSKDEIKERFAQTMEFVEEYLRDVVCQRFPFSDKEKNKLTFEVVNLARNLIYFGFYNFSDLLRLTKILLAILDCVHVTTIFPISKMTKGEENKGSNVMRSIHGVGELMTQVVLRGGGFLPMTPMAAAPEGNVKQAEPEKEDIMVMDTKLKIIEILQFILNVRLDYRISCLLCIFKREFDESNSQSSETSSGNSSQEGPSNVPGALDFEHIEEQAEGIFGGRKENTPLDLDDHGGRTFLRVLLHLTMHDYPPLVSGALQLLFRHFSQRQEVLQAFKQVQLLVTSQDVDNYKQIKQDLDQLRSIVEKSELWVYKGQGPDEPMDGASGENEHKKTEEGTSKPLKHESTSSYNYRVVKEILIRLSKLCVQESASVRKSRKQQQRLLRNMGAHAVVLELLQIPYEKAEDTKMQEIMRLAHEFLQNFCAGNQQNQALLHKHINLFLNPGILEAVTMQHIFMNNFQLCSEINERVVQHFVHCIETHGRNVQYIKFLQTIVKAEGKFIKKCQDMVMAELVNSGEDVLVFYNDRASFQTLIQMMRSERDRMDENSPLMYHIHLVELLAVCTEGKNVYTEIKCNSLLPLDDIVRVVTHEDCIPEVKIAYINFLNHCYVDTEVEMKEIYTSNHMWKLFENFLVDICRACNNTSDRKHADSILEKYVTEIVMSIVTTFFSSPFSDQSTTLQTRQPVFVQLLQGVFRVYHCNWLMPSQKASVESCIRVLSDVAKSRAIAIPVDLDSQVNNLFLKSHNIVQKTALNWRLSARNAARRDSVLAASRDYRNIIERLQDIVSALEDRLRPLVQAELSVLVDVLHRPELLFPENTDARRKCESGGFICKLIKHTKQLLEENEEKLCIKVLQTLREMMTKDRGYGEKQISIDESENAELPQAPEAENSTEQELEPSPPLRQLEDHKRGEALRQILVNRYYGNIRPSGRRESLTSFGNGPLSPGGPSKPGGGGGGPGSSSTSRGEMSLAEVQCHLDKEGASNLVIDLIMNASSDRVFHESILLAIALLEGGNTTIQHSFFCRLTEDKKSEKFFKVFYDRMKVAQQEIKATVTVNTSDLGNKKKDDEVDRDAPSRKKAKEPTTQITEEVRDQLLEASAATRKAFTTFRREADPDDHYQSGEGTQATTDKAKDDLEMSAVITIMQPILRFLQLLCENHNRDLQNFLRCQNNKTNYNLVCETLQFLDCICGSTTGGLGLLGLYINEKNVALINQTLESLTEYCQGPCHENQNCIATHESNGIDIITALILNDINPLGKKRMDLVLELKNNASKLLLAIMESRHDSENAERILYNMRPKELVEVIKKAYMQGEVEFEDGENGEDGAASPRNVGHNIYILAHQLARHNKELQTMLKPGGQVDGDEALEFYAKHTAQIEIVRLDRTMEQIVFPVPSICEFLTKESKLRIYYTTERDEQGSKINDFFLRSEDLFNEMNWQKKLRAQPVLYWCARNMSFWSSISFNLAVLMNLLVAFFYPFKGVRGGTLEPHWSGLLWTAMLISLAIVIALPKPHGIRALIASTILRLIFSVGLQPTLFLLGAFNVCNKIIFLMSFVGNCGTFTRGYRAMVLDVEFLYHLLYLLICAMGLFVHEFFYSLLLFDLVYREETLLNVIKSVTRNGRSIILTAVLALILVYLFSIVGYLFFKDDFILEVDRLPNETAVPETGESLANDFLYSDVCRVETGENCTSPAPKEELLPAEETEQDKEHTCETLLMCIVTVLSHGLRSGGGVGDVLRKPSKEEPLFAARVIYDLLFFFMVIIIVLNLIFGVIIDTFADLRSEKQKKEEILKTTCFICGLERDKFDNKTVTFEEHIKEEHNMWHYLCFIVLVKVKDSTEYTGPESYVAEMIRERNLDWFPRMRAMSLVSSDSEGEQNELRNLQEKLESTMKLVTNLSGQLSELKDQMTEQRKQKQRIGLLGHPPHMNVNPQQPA

- binding result: no binding
B1: mouse KRAP deletion mutant composed of the coiled-coil region only (988-1252), N-terminal HA tag (other)
chain: HMTEEDRYEVDQLQGLRNSVRMELQDLEMQLEERLLGLDEQLRAVRVPSPFRPSALPGMCGSRSVDNLSCPSPLNVMEPVTELMREQSYLKSELGLGLGDMAYEIPPGESSESVFSQATSESSSVCSSPSHTNRRSRGLPGSKPRARLVARKKIFRASVALTPTAPSRTGSVQTPPDLESSEEAGGAEEASPVVGLASHVEEEPEDLSLMPAAEEMHRNVEQDELQQVIREIKESIVGEIRREIVSGLLAAVASSKAPGPKQDSH
notes: not shown: N-terminal HA tag of the pCMV-HA vector
